Biological target: T1, GST-FIH (human, UniProt Q9NWT6 1-349)
T1 construct: human FIH, cDNA NM_017902.2 in pGEX; also called recombinant FIH
Assay: pull-down; GST-FIH and His-NAA10 WT or W38F in binding buffer, 4 °C, 1 h; nickel affinity beads; Western blot
Conditions: both partners purified

T1 sequence (Q9NWT6 whole entry): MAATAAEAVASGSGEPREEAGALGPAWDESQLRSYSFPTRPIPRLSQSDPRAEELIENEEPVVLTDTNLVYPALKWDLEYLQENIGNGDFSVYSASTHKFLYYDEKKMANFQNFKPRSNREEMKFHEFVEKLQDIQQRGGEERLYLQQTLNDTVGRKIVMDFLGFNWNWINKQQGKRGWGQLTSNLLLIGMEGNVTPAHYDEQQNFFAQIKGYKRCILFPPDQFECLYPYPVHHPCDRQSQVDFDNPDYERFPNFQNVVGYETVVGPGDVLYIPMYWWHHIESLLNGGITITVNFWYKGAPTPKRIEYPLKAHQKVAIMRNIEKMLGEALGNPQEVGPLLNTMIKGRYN

B1: His(6)-NAA10 W38F (enzyme, human, UniProt P41227-1 1-235, looked up)
chain: MNIRNARPEDLMNMQHCNLLCLPENYQMKYYFYHGLSFPQLSYIAEDENGKIVGYVLAKMEEDPDDVPHGHITSLAVKRSHRRLGLAQKLMDQASRAMIENFNAKYVSLHVRKSNRAALHLYSNTLNFQISEVEPKYYADGEDAYAMKRDLTQMADELRRHLELKEKGRHVVLGAIENKVESKGNSPPSSGEACREEKGLAAEDSGGDSKDLSEVSETTESTDVKDSSEASDSAS
notes: human NAA10, cDNA NM_003491 in pET-28c-HIS, with W38F by PCR-based mutagenesis; also called W38F mutant; source: E. coli BL21, purified (Nickel-NTA beads, eluted with imidazole)
  binding result: binds
